Experimental data from publication PMC11695829, “DSIF factor Spt5 coordinates transcription, maturation and exoribonucleolysis of RNA polymerase II transcripts” (Nature Communications, 2025).
One block for each binder: values may come before it.

Tests used:
[1] = target: T1, Full-length Spt4/5 heterodimer (DSIF) (S. pombe, UniProt O13936 1-990; Q9P7K8 1-105); experiment: pull-down; Rai1 immobilised on beads and challenged with Xrn2 or Xrn2/Spt4/5; no Pol II; details: both partners purified
T1 construct: Spt5 of S. pombe, full length; Spt4 of S. pombe, full length; Co-expressed heterodimer, used as one preformed complex in all in vitro experiments; Only the Kow5 domain of Spt5 is seen in the cryo-EM map; also called Spt5-Spt4; Spt5
T1 sequence (looked up) 1: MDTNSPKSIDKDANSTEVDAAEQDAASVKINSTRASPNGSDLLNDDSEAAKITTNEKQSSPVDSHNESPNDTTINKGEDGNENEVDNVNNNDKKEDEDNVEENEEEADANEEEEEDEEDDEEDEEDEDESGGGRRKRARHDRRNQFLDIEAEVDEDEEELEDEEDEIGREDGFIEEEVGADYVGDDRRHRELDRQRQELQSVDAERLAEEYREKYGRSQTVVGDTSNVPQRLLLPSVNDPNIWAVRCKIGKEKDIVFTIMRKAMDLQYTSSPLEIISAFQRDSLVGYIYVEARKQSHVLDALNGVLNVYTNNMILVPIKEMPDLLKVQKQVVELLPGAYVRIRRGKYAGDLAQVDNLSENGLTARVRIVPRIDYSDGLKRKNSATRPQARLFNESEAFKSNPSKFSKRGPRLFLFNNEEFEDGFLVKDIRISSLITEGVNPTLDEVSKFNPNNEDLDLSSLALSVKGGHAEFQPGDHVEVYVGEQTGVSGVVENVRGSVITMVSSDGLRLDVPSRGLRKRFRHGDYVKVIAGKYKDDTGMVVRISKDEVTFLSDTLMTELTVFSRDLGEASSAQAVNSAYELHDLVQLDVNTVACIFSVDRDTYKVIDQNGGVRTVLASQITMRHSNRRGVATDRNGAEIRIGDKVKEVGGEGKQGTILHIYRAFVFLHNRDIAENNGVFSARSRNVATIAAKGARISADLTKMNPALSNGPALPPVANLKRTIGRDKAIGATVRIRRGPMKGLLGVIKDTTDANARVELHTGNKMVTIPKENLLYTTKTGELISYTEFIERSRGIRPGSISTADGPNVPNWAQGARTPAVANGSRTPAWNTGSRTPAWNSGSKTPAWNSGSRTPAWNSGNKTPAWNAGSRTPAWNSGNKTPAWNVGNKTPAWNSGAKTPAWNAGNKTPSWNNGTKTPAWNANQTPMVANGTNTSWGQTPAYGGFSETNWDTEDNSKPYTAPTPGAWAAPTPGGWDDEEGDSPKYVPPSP
T1 sequence (looked up) 2: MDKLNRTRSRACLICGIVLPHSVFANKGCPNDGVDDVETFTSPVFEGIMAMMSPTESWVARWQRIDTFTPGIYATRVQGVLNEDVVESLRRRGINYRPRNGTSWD

[2] = target: C-terminally truncated Xrn2 (residues 1–885), WT (S. pombe)

binding result [1]: binds
B1: full-length Rai1 Strep-tagged (natural protein, S. pombe, UniProt O13836 1-352, looked up)
chain: MLREFSFYDVPPAHVPPVSEPLEIACYSLSRDRELLLDDSKLSYYYPPPLFSDLNTGFPNRFHPPKSDPDPISIVKDVLMTKGIQMNSSFLTWRGLITKIMCAPLDPRNHWETYLVMDPTSGIIMMEERTRSETSYANQDRMCYWGYKFEAISTLPEIWDACSRDQIEQRDNQDVVPDEQYCSIVKINIGKSKLILAGEVDCIWDKKPCSAKESDVHSDDGTIEEDASNAENPNLHYVELKTSKKYPLENYGMRKKLLKYWAQSFLLGIGRIIIGFRDDNGILIEMKELFTHQIPKMLRPYFKPNDWTPNRLLVVLEHALEWIKQTVKQHPPSTEFTLSYTGGSKLVLRQII
notes: source: Rosetta E. coli, purified (StrepTrap HP, Superdex 200)

half-life of normalised anisotropy (a proxy for substrate half-life) in the degradation of P-RNA-FAM by Xrn2, fluorescence anisotropy; decrease in the presence of Kow5-sCTR [2]: 3 fold
B2: Kow5-sCTR (Spt5 region 720 to 874 aa, N-terminal His-tag) (domain or fragment)
chain: LKRTIGRDKAIGATVRIRRGPMKGLLGVIKDTTDANARVELHTGNKMVTIPKENLLYTTKTGELISYTEFIERSRGIRPGSISTADGPNVPNWAQGARTPAVANGSRTPAWNTGSRTPAWNSGSKTPAWNSGSRTPAWNSGNKTPAWNAGSRTPA
